Source: US20060269536A1 (UNIVERSITE DE LAUSANNE, published 2006)

Target: Trypsin
Assay: inhibitory profile of MDCI; method as in example 1

kon: 1.13e+06 M⁻¹ s⁻¹
B1: rACTPCI (MD CI) (designed binder)
chain: MRGSHHHHHHSRHPNSPLDEENLTQENQDRGTHVDLGLASANVDFAFSLYKQLVLKAPDKNVIFSPLSISTALAFLSLGAHNTTLTEILKGLKFNLTETSEAEIHQSFQHLLRTLNQSSDELQLSMGNAMFVKEQLSLLDRFTEDAKRLYGSEAFATDFQDSAAAKKLINDYVKNGTRGKITDLIKDLDSQTMMVLVNYIFFKAKWEMPFDPQDTHQSRFYLSKKKWVMVPMMSLHHLTIPYFRDEELSCTVVELKYTGNASALFILPDQDKMEEVEAMLLPETLKRWRDSLEFREIGELYLPKFSISRDYNLNDILLQLGIEEAFTSKADLSGITGARNLAVSQVVHKAVLDVFEEGTEASAATAVKITFRSALVETRTIVRFNRPFLMIIVPTDTQNIFFMSKVTNPKQA
